Source: patent publication US20040053370A1 (Eli Lilly, published 2004)
Ends that are not written are not given here.

Target: GLP-1 receptor
Experiment: cell-based or functional assay

Going from HVEGTFTSDYSSYLEGQAAKEFIAWLVKGRG [Val^8-Tyr^16-GLP-1(7-37)OH] to HVEGTYTSDVSSYLEGQAAKEFIAWLVKGRG [Val^8-Tyr^12-GLP-1(7-37)OH], the “GLP-1 Receptor Activation” value falls from 1.18 fold of GLP-1(7-37)OH to 0.81 fold of GLP-1(7-37)OH.

HVEGTFTSDVSSYLEGQAAKEFIAWLVKGGP-NH2 [Val^8-Gly^36-Pro^37-GLP-1(7-37)NH2] was tested, and the “GLP-1 Receptor Activation” value was 0.53 fold of GLP-1(7-37)OH.

Target: GLP-1 receptor
Experiment: cell-based or functional assay
Remark: another data set of the same source

Compared with HVEGTFTSDLSKQMEEEAVRLFIAWLVKGRG, HGEGTFTSDLSKQMEEEAVRLFIAWLVKGRG is higher in “In Vitro Activity (% of Val^8-GLP-1(7-37)OH)” value: 2.86 % of Val^8-GLP-1(7-37)OH for the first, 3.25 % of Val^8-GLP-1(7-37)OH for the second.

Compared with HGEGTFTSDLSKQMEEEAAKEFIEWLKNGGP-NH2 [HGEGTFTSDLSKQMEEEAAKEFIEWLKNGGP-NH2], HVEGTFTSDLSKQMEGQAAKEFIAWLVKGRG is lower in “In Vitro Activity (% of Val^8-GLP-1(7-37)OH)” value: 2.8 % of Val^8-GLP-1(7-37)OH for the first, 0.11 % of Val^8-GLP-1(7-37)OH for the second.

Compared with HGEGTFTSDLSSYLEEEAVRLFIEWLKNGGP-NH2 [HGEGTFTSDLSSYLEEEAVRLFIEWLKNGGP-NH2], HAEGTFTSDVSSYLEGQAAKEFIAWLVKGRPSSGAPPPS-NH2 [HAEGTFTSDVSSYLEGQAAKEFIAWLVKGRPSSGAPPPS-NH2] is lower in “In Vitro Activity (% of Val^8-GLP-1(7-37)OH)” value: 5.07 % of Val^8-GLP-1(7-37)OH for the first, 3.3 % of Val^8-GLP-1(7-37)OH for the second.

Going from HGEGTFTSDVSSYLEEEAVRLFIEWLKNGGP-NH2 [HGEGTFTSDVSSYLEEEAVRLFIEWLKNGGP-NH2] to HVEGTFTSDVSSYLEEEAVRLFIAWLVKGRG, the “In Vitro Activity (% of Val^8-GLP-1(7-37)OH)” value falls from 5.4 % of Val^8-GLP-1(7-37)OH to 1.47 % of Val^8-GLP-1(7-37)OH.

Compared with HAEGTFTSDVSKQLEEEAAKEFIAWLVKGRG, HVEGTFTSDVSSYLEGQAAKEFIEWLKNGGP-NH2 [HVEGTFTSDVSSYLEGQAAKEFIEWLKNGGP-NH2] is higher in “In Vitro Activity (% of Val^8-GLP-1(7-37)OH)” value: 2.15 % of Val^8-GLP-1(7-37)OH for the first, 2.36 % of Val^8-GLP-1(7-37)OH for the second.

Compared with HVEGTFTSDVSSYLEGQAAKEFIAWLVKGRG [Val^8-GLP-1(7-37)OH], HGEGTFTSDLSKQMEGQAAKEFIEWLKNGGP-NH2 [HGEGTFTSDLSKQMEGQAAKEFIEWLKNGGP-NH2] is higher in “In Vitro Activity (% of Val^8-GLP-1(7-37)OH)” value: 1 % of Val^8-GLP-1(7-37)OH for the first, 1.44 % of Val^8-GLP-1(7-37)OH for the second.

Target: GLP-1 receptor
Experiment: cell-based or functional assay
Remark: another data set of the same source

Compared with HVEGTYTSDYSSYLEGQAAKEFIAWLVKGRG [Val^8-Tyr^12-Tyr^16-GLP-1(7-37)OH], HVEGTFTSDYSSFLEGQAAKEFIAWLVKGRG [Val^8-Tyr^16-Phe^19-GLP-1(7-37)OH] is higher in “GLP-1 Receptor Activation” value: 0.7 fold of GLP-1(7-37)OH for the first, 1.32 fold of GLP-1(7-37)OH for the second.

Going from HVEGTYTSDVSSYLEGQAAKEFIAWLVKGR-NH2 [Val^8-Tyr^12-GLP-1(7-36)NH2] to HVDGIFTSDYSSYLEEQAAKEFIAWLVKGRG [Val^8-Asp^9-Ile^11-Tyr^16-Glu^22-GLP-1(7-37)OH], the “GLP-1 Receptor Activation” value rises from 0.52 fold of GLP-1(7-37)OH to 2.02 fold of GLP-1(7-37)OH.

Compared with HVEGTFTSDVSSYFEEQAAKEFIAWLVKGRG [Val^8-Phe^20-Glu^22-GLP-1(7-37)OH], HVEGTFTSDVSSYLEGQALKEFIAWLVKGRG [Val^8-Leu^25-GLP-1(7-37)OH] is lower in “GLP-1 Receptor Activation” value: 1.27 fold of GLP-1(7-37)OH for the first, 0.24 fold of GLP-1(7-37)OH for the second.

First: HVEGTFTSDVSSFLEEQAAKEFIAWLVKGRG [Val^8-Phe^19-Glu^22-GLP-1(7-37)OH]
Second: HVEGTWTSDVSSYLEGQAAKEFIAWLVKGRG [Val^8-Trp^12-GLP-1(7-37)OH]
The “GLP-1 Receptor Activation” value of the first is higher: 0.7 fold of GLP-1(7-37)OH for the first, 0.52 fold of GLP-1(7-37)OH for the second.

Compared with HVEGTFTSDCSSYLEGQAAKEFIAWLVKGRG [Val^8-Cys^16-Lys^26-GLP-1(7-37)OH], HVEGTFTSDVSKYLEEQAAKEFIAWLVKGRG [Val^8-Lys^18-Glu^22-GLP-1(7-37)OH] is lower in “GLP-1 Receptor Activation” value: 1.97 fold of GLP-1(7-37)OH for the first, 1.18 fold of GLP-1(7-37)OH for the second.

First: HVEGTFTSDVSFYLEEQAAKEFIAWLVKGRG [Val^8-Phe^18-Glu^22-GLP-1(7-37)OH]
Second: HVEGTFTSDVSIYLEEQAAKEFIAWLVKGRG [Val^8-Ile^18-Glu^22-GLP-1(7-37)OH]
The “GLP-1 Receptor Activation” value of the first is lower: 0.94 fold of GLP-1(7-37)OH for the first, 1.88 fold of GLP-1(7-37)OH for the second.

Going from HVEGTFTSDVSSYLEEQALKEFIAWLVKGRG [Val^8-Glu^22-Leu^25-GLP-1(7-37)OH] to HVEGTFTSDVSSYLEEQAAKIFIAWLVKGRG [Val^8-Glu^22-Ile^27-GLP-1(7-37)OH], the “GLP-1 Receptor Activation” value falls from 1.32 fold of GLP-1(7-37)OH to 0.94 fold of GLP-1(7-37)OH.

Compared with HVEGTFTSDLSSYLEEQAAKEFIAWLVKGRG [Val^8-Leu^16-Glu^22-GLP-1(7-37)OH], HVEGTFTSDVSSYLEEQAIKEFIAWLVKGRG [Val^8-Glu^22-Ile^25-GLP-1(7-37)OH] is lower in “GLP-1 Receptor Activation” value: 2.02 fold of GLP-1(7-37)OH for the first, 1.46 fold of GLP-1(7-37)OH for the second.

Going from HVEGTFTSDLSSYLEGQAAKEFIAWLVKGRG [Val^8-Leu^16-GLP-1(7-37)OH] to HVEGTFTSDYSSYLEGQAAKEFIAWLVKGRG [Val^8-Tyr^16-GLP-1(7-37)OH], the “GLP-1 Receptor Activation” value rises from 0.52 fold of GLP-1(7-37)OH to 1.18 fold of GLP-1(7-37)OH.

HGEGTFTSDVSSYLEGQAAKEFIAWLVKGRG [Gly^8-GLP-1(7-37)OH] and HVEGTWTSDVSSYLEEQAAKEFIAWLVKGRG [Val^8-Trp^12-Glu^22-GLP-1(7-37)OH] are the same in “GLP-1 Receptor Activation” value: 0.8 fold of GLP-1(7-37)OH for the first, 0.8 fold of GLP-1(7-37)OH for the second.

Going from HVEGTFTSDYSSWLEEQAAKEFIAWLVKGRG [Val^8-Tyr^16-Trp^19-Glu^22-GLP-1(7-37)OH] to HVEGTFTSDFSSYLEEQAAKEFIAWLVKGRG [Val^8-Phe^16-Glu^22-GLP-1(7-37)OH], the “GLP-1 Receptor Activation” value falls from 1.64 fold of GLP-1(7-37)OH to 1.08 fold of GLP-1(7-37)OH.

Going from HVEGTYTSDVSSYLEGQAAKEFIAWLVKGRG [Val^8-Tyr^12-GLP-1(7-37)OH] to HVEGTFTSDISSYLEEQAAKEFIAWLVKGRG [Val^8-Ile^16-Glu^22-GLP-1(7-37)OH], the “GLP-1 Receptor Activation” value rises from 0.8 fold of GLP-1(7-37)OH to 1.55 fold of GLP-1(7-37)OH.

First: HVEGTYTSDVSSYLEEQAAKEFIAWLVKGRG [Val^8-Tyr^12-Glu^22-GLP-1(7-37)OH]
Second: HVEGTFTSDVSSWLEEQAAKEFIAWLVKGRG [Val^8-Trp^19-Glu^22-GLP-1(7-37)OH]
The “GLP-1 Receptor Activation” value of the first is lower: 1.27 fold of GLP-1(7-37)OH for the first, 1.5 fold of GLP-1(7-37)OH for the second.

HVEGTFTSDWSSYLEEQAVKEFIAWLIKGRG [Val^8-Trp^16-Glu^22-Val^25-Ile^33-GLP-1(7-37)OH] was tested, and the “GLP-1 Receptor Activation” value was 2.35 fold of GLP-1(7-37)OH.
